B1: ACSBG2 (parent)
chain: TPMTIPEFFRESVNRFGTYPALAS
B2: PDS5B (parent)
chain: ITYPPGVKEISDKISKEEMVRRLK

Variants of: B1
Experiment: protein stability index of a GFP-peptide fusion (GPS, HEK-293T) (PSI 1-6); higher = more stable
Details: c terminus: a fixed tail appended
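Note: lentivirally expressed fusions sorted by FACS into six bins by GFP to DsRed ratio, PSI derived from sequencing read proportions per bin multiplied by bin number.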

| Variant | protein stability index |
| --- | --- |
| A21P | 2.32 |
| A21R | 2.16 |
| A21T | 2.02 |
| A21E | 2.69 |
| A21F | 1.65 |
| A21Y | 2.17 |
| A21D | 2.84 |
| P20V | 2.41 |
| P20I | 2.34 |
| P20H | 1.92 |
| P20C | 1.97 |
| P20K | 2.39 |
| P20S | 2.04 |
| P20A | 1.89 |
| P20L | 2.63 |
| P20N | 2.11 |
| S12A | 1.97 |
| S12R | 2.25 |
| S12P | 2.47 |
| S12Q | 2.65 |
| S12Y | 1.86 |
| S12V | 2.19 |
| S12E | 2.69 |
| S12T | 2.02 |
| S12C | 1.53 |
| A23W | 2.55 |

| Variant | protein stability index |
| --- | --- |
| A23Q | 2.69 |
| A23F | 1.67 |
| A23G | 2.2 |
| A23H | 2.43 |
| A23K | 2.71 |
| A23V | 1.66 |
| A23S | 2.56 |
| V13E | 2.78 |
| V13I | 2.56 |
| V13F | 1.97 |
| V13W | 1.76 |
| V13K | 2.31 |
| V13N | 2.84 |
| T18G | 2.17 |
| T18A | 1.89 |
| T18M | 1.74 |
| T18S | 2.06 |
| T18F | 1.9 |
| T18V | 2.29 |
| T18Q | 2.02 |
| T18K | 2.77 |
| T18Y | 2.09 |
| P6I | 3 |
| P6G | 2.08 |
| P6Q | 1.93 |
| P6A | 1.8 |

| Variant | protein stability index |
| --- | --- |
| P6R | 2.08 |
| P6F | 4.36 |
| P6T | 1.88 |
| P6M | 3.03 |
| P6L | 3.27 |
| P6W | 2.67 |
| S24D | 2.87 |
| S24N | 2.64 |
| S24A | 2.06 |
| S24W | 1.66 |
| S24T | 2.07 |
| S24C | 2.03 |
| S24P | 2.52 |
| Y19M | 2.77 |
| Y19F | 2.52 |
| Y19Q | 2.91 |
| Y19S | 2.54 |
| Y19I | 2.78 |
| Y19C | 2.19 |
| Y19R | 3.17 |
| T1C | 1.73 |
| T1Q | 2.44 |
| T1D | 2.94 |
| T1A | 2.28 |
| T1G | 2.13 |
| T1I | 1.93 |

| Variant | protein stability index |
| --- | --- |
| T1H | 2.07 |
| F16W | 2.16 |
| F16Y | 2.22 |
| F16M | 3.39 |
| F16T | 2.87 |
| F16K | 3.22 |
| F16P | 2.92 |
| R15K | 2.1 |
| R15W | 1.52 |
| R15A | 2.41 |
| R15P | 2.04 |
| R15L | 2.38 |
| E7C | 2.19 |
| E7Y | 1.52 |
| E7I | 2.65 |
| E7M | 2.63 |
| E7H | 2.94 |
| E7P | 2.24 |
| E7Q | 2.02 |
| E7D | 2.13 |
| F9S | 2.71 |
| F9G | 3.05 |
| F9T | 3.4 |
| F9A | 2.42 |
| F9R | 2.88 |
| F9V | 2.36 |

| Variant | protein stability index |
| --- | --- |
| F9L | 1.76 |
| T4D | 2.23 |
| T4S | 1.99 |
| T4Q | 2.13 |
| T4K | 2.31 |
| E11V | 1.99 |
| E11P | 1.72 |
| E11N | 1.82 |
| E11K | 2.09 |
| E11L | 1.48 |
| E11F | 2.47 |
| E11S | 2.15 |
| E11I | 1.69 |
| I5Q | 3.5 |
| I5F | 2.23 |
| I5A | 2.44 |
| I5T | 2.67 |
| I5E | 2.84 |
| I5P | 2.5 |
| N14I | 1.83 |
| N14D | 2.65 |
| N14A | 2.51 |
| N14R | 2.01 |
| N14P | 2.66 |
| N14E | 2.81 |
| N14T | 2.23 |

| Variant | protein stability index |
| --- | --- |
| N14L | 1.62 |
| N14V | 1.93 |
| N14K | 2.54 |
| N14C | 1.83 |
| N14H | 2.05 |
| M3H | 2.37 |
| M3N | 2.62 |
| M3T | 2.55 |
| M3I | 2.5 |
| M3L | 2.09 |
| M3S | 2.8 |
| L22C | 2.54 |
| L22A | 2.51 |
| L22V | 2.02 |
| L22G | 3 |
| L22P | 2.63 |
| L22W | 2.57 |
| L22D | 3.19 |
| F8I | 2.42 |
| F8W | 2.09 |
| F8Q | 2.65 |
| F8H | 2.45 |
| F8M | 2.35 |
| G17Y | 2.04 |
| G17D | 2.76 |
| G17P | 2.22 |

| Variant | protein stability index |
| --- | --- |
| G17C | 1.43 |
| G17E | 2.35 |
| G17L | 1.95 |
| G17V | 2.1 |
| P2Y | 2.88 |
| P2T | 2.35 |
| P2L | 1.93 |
| P2R | 2.12 |
| P2W | 1.4 |
| P2G | 2.12 |
| P2Q | 2.4 |
| P2M | 2.55 |
| P2F | 1.83 |
| P2K | 2.01 |
| R10S | 2.45 |
| R10M | 1.63 |
| R10E | 2.43 |
| R10A | 2.61 |
| R10V | 1.54 |
| R10P | 3.03 |
| R10C | 1.5 |

Variants of: B2
Experiment: as above
Details: c terminus: a fixed tail appended

| Variant | protein stability index |
| --- | --- |
| E18L | 1.84 |
| E18Q | 4.15 |
| E18S | 3.21 |
| E18F | 2.18 |
| E18A | 4.37 |
| E18G | 3.86 |
| E18I | 2.84 |
| E18K | 3.17 |
| E18C | 3.86 |
| E18V | 3.6 |
| E18M | 3.12 |
| E18P | 3.69 |
| E18T | 4.12 |
| E18H | 4.01 |
| E18Y | 2.86 |
| M19F | 3.26 |
| M19C | 4.1 |
| M19K | 4.54 |
| M19E | 4.79 |
| M19T | 4.99 |
| M19R | 4.34 |
| M19H | 4.74 |
| M19Y | 3.96 |

| Variant | protein stability index |
| --- | --- |
| M19N | 4.76 |
| M19P | 4.64 |
| M19I | 4.24 |
| M19S | 5.02 |
| M19A | 3.68 |
| M19V | 4.65 |
| M19G | 4.29 |
| L23D | 5.12 |
| L23W | 3.1 |
| L23H | 4.08 |
| L23E | 4.84 |
| L23A | 4.61 |
| L23S | 5.11 |
| L23I | 4.51 |
| L23T | 4.79 |
| L23V | 4.29 |
| L23N | 4.49 |
| L23K | 4.85 |
| L23Y | 3.7 |
| L23M | 3.78 |
| L23P | 4.85 |
| L23Q | 4.75 |
| L23G | 4.84 |

| Variant | protein stability index |
| --- | --- |
| L23R | 4.59 |
| K24D | 4.78 |
| K24F | 2.48 |
| K24I | 3.04 |
| K24M | 3.11 |
| K24E | 4.38 |
| K24R | 4.2 |
| K24C | 3.13 |
| K24L | 2.81 |
| K24A | 3.58 |
| K24V | 3.61 |
| K24S | 3.23 |
| K24G | 3.77 |
| K24H | 3.85 |
| K24W | 2.72 |
| K24Y | 2.67 |
| K24N | 3.77 |
| K24T | 4.13 |
| I14Y | 2.68 |
| S15M | 4.01 |
| S15E | 4.81 |
| S15R | 3.7 |
| S15W | 2.13 |

| Variant | protein stability index |
| --- | --- |
| S15C | 3.23 |
| S15H | 4.52 |
| S15I | 2.73 |
| S15T | 3.66 |
| S15D | 4.26 |
| S15Y | 3.46 |
| S15N | 3.89 |
| S15F | 2.33 |
| S15A | 4.27 |
| S15Q | 3.65 |
| K16T | 3.06 |
| K16I | 2.85 |
| K16V | 3.36 |
| K16C | 3.87 |
| K16N | 2.63 |
| K16H | 3.75 |
| K16A | 3.92 |
| K16S | 4.47 |
| K16F | 3 |
| K16E | 3.87 |
| K16D | 3.56 |
| K16G | 2.83 |
| E17K | 3.82 |

| Variant | protein stability index |
| --- | --- |
| E17D | 3.72 |
| E17Y | 2 |
| E17A | 3.14 |
| E17H | 4.17 |
| E17G | 3.52 |
| E17M | 2.65 |
| E17C | 2.91 |
| E17Q | 3.17 |
| E17P | 3.6 |
| E17S | 3.68 |
| E17N | 3.75 |
| E17T | 4.68 |
| E17W | 2.75 |
| E17L | 2.59 |
| E17F | 2.41 |
| R22W | 2.33 |
| R22M | 2.89 |
| R22Y | 2.95 |
| R22T | 4.41 |
| R22D | 4.92 |
| R22C | 2.9 |
| R22K | 3.86 |
| R22N | 4.54 |

| Variant | protein stability index |
| --- | --- |
| R22S | 4.24 |
| R22A | 3.76 |
| R22G | 4.72 |
| R22F | 3.85 |
| R22I | 2.71 |
| R22L | 2.28 |
| R22H | 3.88 |
| R21S | 4.45 |
| R21P | 4.52 |
| R21F | 3.85 |
| R21V | 4.11 |
| R21W | 4.52 |
| R21L | 4.15 |
| R21E | 3.69 |
| R21I | 3.41 |
| R21C | 3.96 |
| R21M | 3.97 |
| R21K | 3.34 |
| R21A | 2.21 |
| R21D | 4.46 |
| R21Q | 4.28 |
| R21T | 4.63 |
| R21G | 4.75 |

| Variant | protein stability index |
| --- | --- |
| R21H | 3.77 |
| R21N | 3.44 |
| V20D | 5.06 |
| V20R | 4.61 |
| V20K | 4.17 |
| V20L | 3.49 |
| V20S | 4.83 |
| V20W | 3.38 |
| V20C | 3.74 |
| V20N | 4.4 |
| V20Q | 4.03 |
| V20F | 3.6 |
| V20A | 3.59 |
| V20M | 3.81 |
| V20I | 3.42 |
| V20P | 4.26 |
| V20Y | 4.2 |
| V20H | 4.19 |
| V20G | 4.59 |

From the supplement of paper PMC10567573
